Source: US20250382384A1 (BEONE MEDICINES I, published 2025)

T1: human MUC1 SEA domain protein (human, UniProt P15941 1036-1155)
T1 construct: also called HuMUC1-SEA; huMUC1 SEA
T1 sequence: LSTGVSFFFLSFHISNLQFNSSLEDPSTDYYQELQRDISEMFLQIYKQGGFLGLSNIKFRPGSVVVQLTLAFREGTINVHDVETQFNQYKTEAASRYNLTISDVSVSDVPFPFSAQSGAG


Each binder was assayed against T1, human MUC1 SEA domain protein (assay: SPR, antibody captured, huMUC1 SEA analyte).

Binder	Kd
huBG138P-Hz1 (antibody, V domains shown, humanized; constant regions not restated (IgG1/Ckappa vector used for the first round)) VH: QVQLVQSGAEVKKPGASVKVSCKASGYTFTTYTMHWVRQAPGQRLEWMGYINPGSDYTHYNQKFKDRVTITADTSASTAYMELSSLRSEDTAVYYCARQGNYAAYYFDYWGQGTLVTVSS VL: DIQMTQSPSSLSASVGDRVTITCRASGNIHNFLVWYQQKPGKVPKLLIYNAKTLTSGVPSRFSGSGSGTDYTLTISSLQPEDVATYYCQNFWNVPFTFGQGTKLEIK	0.241 nM
huBG138P-Hz3 (antibody, V domains shown, humanized; constant regions not restated) VH: QVQLVQSGAEVKKPGASVKVSCKASGYTFTTYTMHWVRQAPGQGLEWMGYINPGSDYTHYNQKFKDRVTITADKSASTAYMELSSLRSEDTAVYYCARQGNYAAYYFDYWGQGTLVTVSS VL: DIQMTQSPSSLSASVGDRVTITCRASGNIHNFLVWYQQKPGKVPKLLIYNAKTLTSGVPSRFSGSGSGTDYTLTISSLQPEDVATYYCQNFWNVPFTFGQGTKLEIK	0.242 nM
huBG138P-Hz4 (antibody, V domains shown, humanized; constant regions not restated) VH: QVQLVQSGAEVKKPGASVKVSCKASGYTFTTYTMHWVRQAPGQGLEWMGYINPGSDYTHYNQKFKDRVTITADKSASTAYMELSSLRSEDTAVYYCARQGNYAAYYFDYWGQGTLVTVSS VL: DIQMTQSPSSLSASVGDRVTITCRASGNIHNFLVWYQQKPGKSPKLLIYNAKTLTSGVPSRFSGSGSGTQYTLTISSLQPEDVATYYCQNFWNVPFTFGQGTKLEIK	0.223 nM

Each binder was assayed against T1, human MUC1 SEA domain protein (assay: SPR (Biacore 2000), antibody captured, huMUC1 SEA analyte, 1:1 binding).

Binder	Kd
BG138P-Bz0 (antibody, human IgG1, V domains shown, human IgG1/Ckappa) VH: QVQLVQSGAEVKKPGASVKVSCKASGYTFTTYTMHWIKQAPGQGLEWIGYINPGSDYTHYNQKFKDKATLTADKSASTAYMELYSLRSEDTAVYYCARQGNYAAYYFDYWGQGTLVTVSS VL: DIQMTQSPSSLSASVGDRVTITCRASGNIHNFLVWYQQKPGKSPKLLVYNAKTLTDGVPSRFSGSGSGTQYSLTISSLQPEDVATYYCQNFWNVPFTFGSGTKLEIK	0.464 nM
BG138P-Bz1 (antibody, human IgG1, V domains shown, human IgG1/Ckappa) VH: QVQLVQSGAEVKKPGASVKVSCKASGYTFTTYTMHWVKQAPGQGLEWIGYINPGSDYTHYNQKFKDKATLTADKSASTAYMELYSLRSEDTAVYYCARQGNYAAYYFDYWGQGTLVTVSS VL: DIQMTQSPSSLSASVGDRVTITCRASGNIHNFLVWYQQKPGKSPKLLVYNAKTLTDGVPSRFSGSGSGTQYSLTISSLQPEDVATYYCQNFWNVPFTFGSGTKLEIK	0.503 nM
BG138P-Bz2 (antibody, human IgG1, V domains shown, human IgG1/Ckappa) VH: QVQLVQSGAEVKKPGASVKVSCKASGYTFTTYTMHWIRQAPGQGLEWIGYINPGSDYTHYNQKFKDKATLTADKSASTAYMELYSLRSEDTAVYYCARQGNYAAYYFDYWGQGTLVTVSS VL: DIQMTQSPSSLSASVGDRVTITCRASGNIHNFLVWYQQKPGKSPKLLVYNAKTLTDGVPSRFSGSGSGTQYSLTISSLQPEDVATYYCQNFWNVPFTFGSGTKLEIK	0.453 nM
BG138P-Bz3 (antibody, human IgG1, V domains shown, human IgG1/Ckappa) VH: QVQLVQSGAEVKKPGASVKVSCKASGYTFTTYTMHWIKQAPGQRLEWIGYINPGSDYTHYNQKFKDKATLTADKSASTAYMELYSLRSEDTAVYYCARQGNYAAYYFDYWGQGTLVTVSS VL: DIQMTQSPSSLSASVGDRVTITCRASGNIHNFLVWYQQKPGKSPKLLVYNAKTLTDGVPSRFSGSGSGTQYSLTISSLQPEDVATYYCQNFWNVPFTFGSGTKLEIK	0.532 nM
BG138P-Bz4 (antibody, human IgG1, V domains shown, human IgG1/Ckappa) VH: QVQLVQSGAEVKKPGASVKVSCKASGYTFTTYTMHWIKQAPGQGLEWMGYINPGSDYTHYNQKFKDKATLTADKSASTAYMELYSLRSEDTAVYYCARQGNYAAYYFDYWGQGTLVTVSS VL: DIQMTQSPSSLSASVGDRVTITCRASGNIHNFLVWYQQKPGKSPKLLVYNAKTLTDGVPSRFSGSGSGTQYSLTISSLQPEDVATYYCQNFWNVPFTFGSGTKLEIK	0.488 nM
BG138P-Bz5 (antibody, human IgG1, V domains shown, human IgG1/Ckappa) VH: QVQLVQSGAEVKKPGASVKVSCKASGYTFTTYTMHWIKQAPGQGLEWIGYINPGSDYTHYNQKFKDRATLTADKSASTAYMELYSLRSEDTAVYYCARQGNYAAYYFDYWGQGTLVTVSS VL: DIQMTQSPSSLSASVGDRVTITCRASGNIHNFLVWYQQKPGKSPKLLVYNAKTLTDGVPSRFSGSGSGTQYSLTISSLQPEDVATYYCQNFWNVPFTFGSGTKLEIK	0.475 nM
BG138P-Bz6 (antibody, human IgG1, V domains shown, human IgG1/Ckappa) VH: QVQLVQSGAEVKKPGASVKVSCKASGYTFTTYTMHWIKQAPGQGLEWIGYINPGSDYTHYNQKFKDKVTLTADKSASTAYMELYSLRSEDTAVYYCARQGNYAAYYFDYWGQGTLVTVSS VL: DIQMTQSPSSLSASVGDRVTITCRASGNIHNFLVWYQQKPGKSPKLLVYNAKTLTDGVPSRFSGSGSGTQYSLTISSLQPEDVATYYCQNFWNVPFTFGSGTKLEIK	0.518 nM
BG138P-Bz7 (antibody, human IgG1, V domains shown, human IgG1/Ckappa) VH: QVQLVQSGAEVKKPGASVKVSCKASGYTFTTYTMHWIKQAPGQGLEWIGYINPGSDYTHYNQKFKDKATITADKSASTAYMELYSLRSEDTAVYYCARQGNYAAYYFDYWGQGTLVTVSS VL: DIQMTQSPSSLSASVGDRVTITCRASGNIHNFLVWYQQKPGKSPKLLVYNAKTLTDGVPSRFSGSGSGTQYSLTISSLQPEDVATYYCQNFWNVPFTFGSGTKLEIK	0.407 nM
BG138P-Bz8 (antibody, human IgG1, V domains shown, human IgG1/Ckappa) VH: QVQLVQSGAEVKKPGASVKVSCKASGYTFTTYTMHWIKQAPGQGLEWIGYINPGSDYTHYNQKFKDKATLTRDKSASTAYMELYSLRSEDTAVYYCARQGNYAAYYFDYWGQGTLVTVSS VL: DIQMTQSPSSLSASVGDRVTITCRASGNIHNFLVWYQQKPGKSPKLLVYNAKTLTDGVPSRFSGSGSGTQYSLTISSLQPEDVATYYCQNFWNVPFTFGSGTKLEIK	0.608 nM
BG138P-Bz9 (antibody, human IgG1, V domains shown, human IgG1/Ckappa) VH: QVQLVQSGAEVKKPGASVKVSCKASGYTFTTYTMHWIKQAPGQGLEWIGYINPGSDYTHYNQKFKDKATLTADTSASTAYMELYSLRSEDTAVYYCARQGNYAAYYFDYWGQGTLVTVSS VL: DIQMTQSPSSLSASVGDRVTITCRASGNIHNFLVWYQQKPGKSPKLLVYNAKTLTDGVPSRFSGSGSGTQYSLTISSLQPEDVATYYCQNFWNVPFTFGSGTKLEIK	0.476 nM
BG138P-Bz10 (antibody, human IgG1, V domains shown, human IgG1/Ckappa) VH: QVQLVQSGAEVKKPGASVKVSCKASGYTFTTYTMHWIKQAPGQGLEWIGYINPGSDYTHYNQKFKDKATLTADKSASTAYMELSSLRSEDTAVYYCARQGNYAAYYFDYWGQGTLVTVSS VL: DIQMTQSPSSLSASVGDRVTITCRASGNIHNFLVWYQQKPGKSPKLLVYNAKTLTDGVPSRFSGSGSGTQYSLTISSLQPEDVATYYCQNFWNVPFTFGSGTKLEIK	0.448 nM
BG138P-Bz11 (antibody, human IgG1, V domains shown, human IgG1/Ckappa) VH: QVQLVQSGAEVKKPGASVKVSCKASGYTFTTYTMHWIKQAPGQGLEWIGYINPGSDYTHYNQKFKDKATLTADKSASTAYMELYSLRSEDTAVYYCARQGNYAAYYFDYWGQGTLVTVSS VL: DIQMTQSPSSLSASVGDRVTITCRASGNIHNFLVWYQQKPGKVPKLLVYNAKTLTDGVPSRFSGSGSGTQYSLTISSLQPEDVATYYCQNFWNVPFTFGSGTKLEIK	0.513 nM
BG138P-Bz12 (antibody, human IgG1, V domains shown, human IgG1/Ckappa) VH: QVQLVQSGAEVKKPGASVKVSCKASGYTFTTYTMHWIKQAPGQGLEWIGYINPGSDYTHYNQKFKDKATLTADKSASTAYMELYSLRSEDTAVYYCARQGNYAAYYFDYWGQGTLVTVSS VL: DIQMTQSPSSLSASVGDRVTITCRASGNIHNFLVWYQQKPGKSPKLLIYNAKTLTDGVPSRFSGSGSGTQYSLTISSLQPEDVATYYCQNFWNVPFTFGSGTKLEIK	0.501 nM
BG138P-Bz13 (antibody, human IgG1, V domains shown, human IgG1/Ckappa) VH: QVQLVQSGAEVKKPGASVKVSCKASGYTFTTYTMHWIKQAPGQGLEWIGYINPGSDYTHYNQKFKDKATLTADKSASTAYMELYSLRSEDTAVYYCARQGNYAAYYFDYWGQGTLVTVSS VL: DIQMTQSPSSLSASVGDRVTITCRASGNIHNFLVWYQQKPGKSPKLLVYNAKTLTDGVPSRFSGSGSGTDYSLTISSLQPEDVATYYCQNFWNVPFTFGSGTKLEIK	0.453 nM
BG138P-Bz14 (antibody, human IgG1, V domains shown, human IgG1/Ckappa) VH: QVQLVQSGAEVKKPGASVKVSCKASGYTFTTYTMHWIKQAPGQGLEWIGYINPGSDYTHYNQKFKDKATLTADKSASTAYMELYSLRSEDTAVYYCARQGNYAAYYFDYWGQGTLVTVSS VL: DIQMTQSPSSLSASVGDRVTITCRASGNIHNFLVWYQQKPGKSPKLLVYNAKTLTDGVPSRFSGSGSGTQFSLTISSLQPEDVATYYCQNFWNVPFTFGSGTKLEIK	0.608 nM
BG138P-Bz15 (antibody, human IgG1, V domains shown, human IgG1/Ckappa) VH: QVQLVQSGAEVKKPGASVKVSCKASGYTFTTYTMHWIKQAPGQGLEWIGYINPGSDYTHYNQKFKDKATLTADKSASTAYMELYSLRSEDTAVYYCARQGNYAAYYFDYWGQGTLVTVSS VL: DIQMTQSPSSLSASVGDRVTITCRASGNIHNFLVWYQQKPGKSPKLLVYNAKTLTDGVPSRFSGSGSGTQYTLTISSLQPEDVATYYCQNFWNVPFTFGSGTKLEIK	0.493 nM
BG138P-Bz16 (antibody, human IgG1, V domains shown, human IgG1/Ckappa) VH: QVQLVQSGAEVKKPGASVKVSCKASGYTFTTYTMHWIKQAPGQGLEWIGYINPGSDYTHYNQKFKDKATLTADKSASTAYMELYSLRSEDTAVYYCARQGNYAAYYFDYWGQGTLVTVSS VL: DIQMTQSPSSLSASVGDRVTITCRASGNIHNFLVWYQQKPGKSPKLLVYNAKTLTDGVPSRFSGSGSGTQYSLTISSLQPEDVATYYCQNFWNVPFTFGQGTKLEIK	0.466 nM
BG138P-Hz0 (antibody, human IgG1, V domains shown, human IgG1/Ckappa) VH: QVQLVQSGAEVKKPGASVKVSCKASGYTFTTYTMHWVRQAPGQRLEWMGYINPGSDYTHYNQKFKDRVTITRDTSASTAYMELSSLRSEDTAVYYCARQGNYAAYYFDYWGQGTLVTVSS VL: DIQMTQSPSSLSASVGDRVTITCRASGNIHNFLVWYQQKPGKVPKLLIYNAKTLTDGVPSRFSGSGSGTDFTLTISSLQPEDVATYYCQNFWNVPFTFGQGTKLEIK	0.527 nM
